Data reported in article PMC6044281, “Cooperative Domain Formation by Homologous Motifs in HOIL-1L and SHARPIN Plays A Crucial Role in LUBAC Stabilization” (Cell reports, 2018).
Changes are numbered by the printed parent chain. In names and notes the source's numbering stands. Each block holds one molecule with its values, some of them ahead of it.

T1: mHOIL-1L_(1–140) and mSHARPIN_(163–301) applied together (mouse, UniProt Q9WUB0 1-140; Q91WA6 163-301)
T1 construct: mouse HOIL-1L aa 1-140, as m2; The two fragments were mixed and applied together as one SPR analyte; they heterodimerise through their LTMs; also called the two UBL-containing proteins applied simultaneously; both proteins together
T1 sequence (looked up) 1: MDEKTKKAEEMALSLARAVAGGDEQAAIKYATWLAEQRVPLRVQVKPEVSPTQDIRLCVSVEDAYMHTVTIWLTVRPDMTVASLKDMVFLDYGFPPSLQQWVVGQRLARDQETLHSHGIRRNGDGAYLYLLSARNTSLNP
T1 sequence (looked up) 2: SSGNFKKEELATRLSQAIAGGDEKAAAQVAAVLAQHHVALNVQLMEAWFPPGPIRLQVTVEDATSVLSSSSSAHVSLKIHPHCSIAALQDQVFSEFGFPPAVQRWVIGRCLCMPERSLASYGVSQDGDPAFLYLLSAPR

T2: mHOIL-1L_(1–189)-strep (mouse, UniProt Q9WUB0 1-189)
T2 construct: mouse HOIL-1L LTM-UBL, aa 1-189; Captured on the SPR chip with an anti-strep antibody; also called HOIL-1L_(1–189) (LTM-UBL); not shown: strep, C-terminal, kept
T2 sequence (looked up): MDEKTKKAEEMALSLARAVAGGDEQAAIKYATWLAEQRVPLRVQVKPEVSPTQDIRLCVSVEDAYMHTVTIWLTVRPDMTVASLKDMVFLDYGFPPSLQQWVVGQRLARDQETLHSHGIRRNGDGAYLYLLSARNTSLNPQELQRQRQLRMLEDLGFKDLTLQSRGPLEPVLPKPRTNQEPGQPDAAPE

B1: mHOIP_(474–630) (domain or fragment, mouse, UniProt Q924T7 474-630, looked up)
chain: RQDKMRKEGLQLVSMIQEGETAGASPEEVFSALQYSGTEVPLQWLRSELSYVLEMVAELAGQQDPELGAFSCQEARKAWLDRHGNLDEAVEECVRARRRKVHELQSLGFGPKEGSLQALFQHGGDVARALTELQRQRLEPFHQRLWDRDPEPTPCWD
notes: also called double-UBA (D-UBA) domain
B2: mSHARPIN_(163–341) (domain or fragment, mouse, UniProt Q91WA6 163-341, looked up)
chain: SSGNFKKEELATRLSQAIAGGDEKAAAQVAAVLAQHHVALNVQLMEAWFPPGPIRLQVTVEDATSVLSSSSSAHVSLKIHPHCSIAALQDQVFSEFGFPPAVQRWVIGRCLCMPERSLASYGVSQDGDPAFLYLLSAPREVSGQSLQNSKMDRKLGLFPQSLGLPHDLQPSSSSLPSPS
B3: GST-mHOIP D-UBA (aa 466–630) UBA2^mut (domain or fragment, mouse, UniProt Q924T7 466-630, looked up)
chain: SCGDPEKQRQDKMRKEGLQLVSMIQEGETAGASPEEVFSALQYSGTEVPLQWLRSELSYVLEMVAELAGQQDPELGAFSCQEARKAWLDRHGNLDEAVEECVRARRRKVHELQSLGFGPKEGSLQALFQHGGDVARALTELARQRAEPAHQRLWDRDPEPTPCWD
notes: also called UBA2^mut [Q607A/L611A/F614A]; not shown: GST, N-terminal, kept
B4: GST-mHOIP_(466–630) (domain or fragment, mouse, UniProt Q924T7 466-630, looked up)
chain: B3 chain with A142Q, A146L, A149F
notes: Captured on the SPR chip via an anti-GST antibody; also called mHOIP fragment containing the UBA domains; not shown: GST, N-terminal, kept
B5: GST-mHOIP D-UBA (aa 466–630) UBA1^mut (domain or fragment, mouse, UniProt Q924T7 466-630, looked up)
chain: B3 chain with R9A, L18A, V21A, A142Q, A146L, A149F
notes: also called UBA1^mut [R474A/L483A/V486A]; not shown: GST, N-terminal, kept
B6: mHOIL-1L_(1–140) (domain or fragment, mouse, UniProt Q9WUB0 1-140, looked up)
chain: T1 sequence (looked up) 1
notes: mouse HOIL-1L, LTM and UBL, aa 1-140; Used as SPR analyte and in the crystal; also called HOIL-1L LTM-UBL (aa 1–140); mHOIL-1L containing UBL (aa 1–140)
B7: mSHARPIN_(163–301) (domain or fragment, mouse, UniProt Q91WA6 163-301, looked up)
chain: T1 sequence (looked up) 2
notes: No tag is named for these experiments; it may be the same MBP fusion as m12; also called SHARPIN LTM-UBL
B8: MBP-mSHARPIN UBL_(163–301) (domain or fragment, mouse, UniProt Q91WA6 163-301, looked up)
chain: T1 sequence (looked up) 2
notes: not shown: MBP, N-terminal, kept

What was measured:
GST-mHOIP_(466–630) [1] = target: B4; assay: SPR; conditions: response read at end of injection (about 185 s); GST-mHOIP D-UBA WT immobilized with anti-GST antibody; parent: est. 270; read off a plot
mSHARPIN_(163–341) = target: B2; assay: crystal structure; LUBAC ternary complex core; sitting-drop vapor diffusion at 20°C, 1.8 M magnesium sulfate, 0.1 M MES pH 6.5; 2.4 Å; conditions: both partners purified
mHOIP_(474–630) = target: B1; assay: SEC; analytical size-exclusion chromatography of the LUBAC core subunits; conditions: both partners purified
mHOIL-1L_(1–140) = target: B6; assay: as above; conditions: both partners purified
[2] = target: T1, mHOIL-1L_(1–140) and mSHARPIN_(163–301) …; assay: SPR; GST-mHOIP D-UBA (aa 466–630; WT or mutant) immobilised via an anti-GST antibody; HOIL-1L and SHARPIN fragments applied together as analytes (500 mg/ml each as printed); stability judged by dissociation; conditions: both partners purified
GST-mHOIP_(466–630) [3] = target: B4; assay: SPR; GST-mHOIP D-UBA (aa 466–630; WT or mutant) immobilised on the sensor chip via an anti-GST antibody; one UBL-containing fragment alone as analyte; conditions: both partners purified
mHOIL-1L_(1–189)-strep = target: T2, mHOIL-1L_(1–189)-strep; assay: SPR; mHOIL-1L_(1–189)-strep immobilised on the sensor chip with anti-strep antibody; MBP-mSHARPIN fragments as analytes; conditions: both partners purified

response (GST-mHOIP_(466–630) [1]): 90 RU
Molecule: mHOIL-1L_(1–140) and mSHARPIN_(163–301) applied together (from UniProt Q9WUB0;Q91WA6) mHOIL-1L: L15A; V19A

response (GST-mHOIP_(466–630) [1]): 70 RU
Molecule: mHOIL-1L_(1–140) and mSHARPIN_(163–301) applied together (from UniProt Q9WUB0;Q91WA6) mSHARPIN: L176A; I180A

Molecule: B1
binding result (mSHARPIN_(163–341)): binds

Molecule: B2
stoichiometry N (mHOIP_(474–630)): 1
stoichiometry N (mHOIL-1L_(1–140)): 1

Molecule: B3
binding result [2]: binds

Molecule: B4
koff [2]: 0.000111 s⁻¹

Molecule: B5
binding result [2]: binds

Molecule: B6
stoichiometry N (mHOIP_(474–630)): 1
Kd (GST-mHOIP_(466–630) [3]): 1340 nM
binding result (mSHARPIN_(163–341)): binds

Molecule: B7
Kd (GST-mHOIP_(466–630) [3]): 16000 nM

Molecule: B8
Kd (mHOIL-1L_(1–189)-strep): 2040 nM
koff (mHOIL-1L_(1–189)-strep): 0.00361 s⁻¹
